The results in this text go back to patent US20260098059A1 (ENDOMET BIOSCIENCES, published 2026).

Several values for one entry are separate records, joined by “and”; a condition that tells them apart may be missing. Equal values may be shown once. Bridges are numbered along the chain shown (N, C = ends). Where no end group is shown, it is not given here. [ ]: non-standard residue; d: D form. NMeW = CN[C@@H](Cc1c[nH]c2ccccc12)C(=O)O; Chg = N[C@H](C(=O)O)C1CCCCC1; αMeV = CC(C)[C@](C)(N)C(=O)O; αMeS = C[C@](N)(CO)C(=O)O; NMeA = CN[C@@H](C)C(=O)O Bounds are passed on as bounds.

Assay [1] concerns the target T1, β-catenin (UniProt P35222 134-665, limits assumed, biotinylated in the SPR and plate assays).
T1 construct: also called beta catenin; biotinylated β-catenin
T1 sequence (looked up): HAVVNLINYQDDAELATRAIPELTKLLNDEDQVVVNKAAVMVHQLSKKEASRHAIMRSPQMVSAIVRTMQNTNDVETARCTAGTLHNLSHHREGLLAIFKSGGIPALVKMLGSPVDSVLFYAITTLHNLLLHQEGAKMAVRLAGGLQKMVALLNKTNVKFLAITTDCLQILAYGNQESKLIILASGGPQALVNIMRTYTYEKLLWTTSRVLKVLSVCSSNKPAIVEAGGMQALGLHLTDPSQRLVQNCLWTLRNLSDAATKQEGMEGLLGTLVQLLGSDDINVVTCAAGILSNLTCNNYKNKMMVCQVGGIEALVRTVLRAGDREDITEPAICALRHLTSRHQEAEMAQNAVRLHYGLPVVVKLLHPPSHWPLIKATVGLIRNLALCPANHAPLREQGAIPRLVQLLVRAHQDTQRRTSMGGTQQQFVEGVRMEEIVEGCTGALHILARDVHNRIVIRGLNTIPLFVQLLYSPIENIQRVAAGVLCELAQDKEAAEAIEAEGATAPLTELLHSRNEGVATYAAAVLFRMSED
In words: competitive FP. In short, it runs like this:
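Competitive fluorescence polarization with inhibitor peptide serially diluted from 10 nM to 30 uM; polarization read at 470 nm excitation, 520 nm emission. Experiments performed three times.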

Assay [2] concerns the target T1, β-catenin. In words: cell-based or functional assay.

B1: SEQ ID NO: 39 (peptide)
peptide: H-W[NMeW]ESILDEH[αMeV]QRVWG-NH2
As usually defined, the Kd is the constant that tells how readily two partners part at equilibrium. Take B1: the Kd in assay [1] was not above 0.4 µM. In addition, the “Wnt Reporter EC50” value in assay [2] is more than 30 µM.

B2: SEQ ID NO: 405 (peptide)
peptide: WAQKILDEHGQRVWG
HELM: PEPTIDE1{[O=C(O)CCC(=O)[*:2]].W.[meA].Q.K.I.L.D.E.H.[O=C([C@@H](N[*:1])C1CCCCC1)[*:2]].Q.R.V.W.G.[am]}$PEPTIDE1,PEPTIDE1,5:R3-9:R3$$$V2.0
SMILES: CC[C@H](C)[C@@H]1NC(=O)[C@@H](NC(=O)[C@H](CCC(N)=O)NC(=O)[C@H](C)N(C)C(=O)[C@H](Cc2c[nH]c3ccccc23)NC(=O)CCC(=O)O)CCCCNC(=O)CC[C@@H](C(=O)N[C@@H](Cc2c[nH]cn2)C(=O)N[C@H](C(=O)N[C@@H](CCC(N)=O)C(=O)N[C@@H](CCCNC(=N)N)C(=O)N[C@H](C(=O)N[C@@H](Cc2c[nH]c3ccccc23)C(=O)NCC(N)=O)C(C)C)C2CCCCC2)NC(=O)[C@H](CC(=O)O)NC(=O)[C@H](CC(C)C)NC1=O
For B2, the Kd in assay [1] was not above 0.4 µM. For the same molecule, in assay [2], the “Proliferation IC50, Wnt dependent cells” value is 26.8 µM; the “Wnt Reporter EC50” value was > 15 µM and ≤ 22.5 µM.

B3: SEQ ID NO: 403 (peptide)
peptide: WAQKILDEHGQRVWG
HELM: PEPTIDE1{W.[meA].Q.K.I.L.D.E.H.[O=C([C@@H](N[*:1])C1CCCCC1)[*:2]].Q.R.V.W.G.[am]}$PEPTIDE1,PEPTIDE1,4:R3-8:R3$$$V2.0
SMILES: CC[C@H](C)[C@@H]1NC(=O)[C@@H](NC(=O)[C@H](CCC(N)=O)NC(=O)[C@H](C)N(C)C(=O)[C@@H](N)Cc2c[nH]c3ccccc23)CCCCNC(=O)CC[C@@H](C(=O)N[C@@H](Cc2c[nH]cn2)C(=O)N[C@H](C(=O)N[C@@H](CCC(N)=O)C(=O)N[C@@H](CCCNC(=N)N)C(=O)N[C@H](C(=O)N[C@@H](Cc2c[nH]c3ccccc23)C(=O)NCC(N)=O)C(C)C)C2CCCCC2)NC(=O)[C@H](CC(=O)O)NC(=O)[C@H](CC(C)C)NC1=O
In assay [1], B3 displayed a Kd not above 0.4 µM. Also, the “Wnt Reporter EC50” value in assay [2] is more than 30 µM.

B4: SEQ ID NO: 413 (peptide)
peptide: ARLPESILDEHVQRVWP
HELM: PEPTIDE1{[ac].[bAla].R.L.P.E.S.I.L.D.E.H.V.Q.R.V.W.P.[am]}$$$$V2.0
SMILES: CC[C@H](C)[C@H](NC(=O)[C@H](CO)NC(=O)[C@H](CCC(=O)O)NC(=O)[C@@H]1CCCN1C(=O)[C@H](CC(C)C)NC(=O)[C@H](CCCNC(=N)N)NC(=O)CCNC(C)=O)C(=O)N[C@@H](CC(C)C)C(=O)N[C@@H](CC(=O)O)C(=O)N[C@@H](CCC(=O)O)C(=O)N[C@@H](Cc1c[nH]cn1)C(=O)N[C@H](C(=O)N[C@@H](CCC(N)=O)C(=O)N[C@@H](CCCNC(=N)N)C(=O)N[C@H](C(=O)N[C@@H](Cc1c[nH]c2ccccc12)C(=O)N1CCC[C@H]1C(N)=O)C(C)C)C(C)C
As to B4, the Kd in assay [1] is not above 0.4 µM. Moreover, the “Wnt Reporter EC50” value in assay [2] is more than 30 µM.

B5: SEQ ID NO: 410 (peptide)
peptide: ARLPESILDEHVQRVWP
HELM: PEPTIDE1{[bAla].R.L.P.E.S.I.L.D.E.H.V.Q.R.V.W.P.[am]}$$$$V2.0
SMILES: CC[C@H](C)[C@H](NC(=O)[C@H](CO)NC(=O)[C@H](CCC(=O)O)NC(=O)[C@@H]1CCCN1C(=O)[C@H](CC(C)C)NC(=O)[C@H](CCCNC(=N)N)NC(=O)CCN)C(=O)N[C@@H](CC(C)C)C(=O)N[C@@H](CC(=O)O)C(=O)N[C@@H](CCC(=O)O)C(=O)N[C@@H](Cc1c[nH]cn1)C(=O)N[C@H](C(=O)N[C@@H](CCC(N)=O)C(=O)N[C@@H](CCCNC(=N)N)C(=O)N[C@H](C(=O)N[C@@H](Cc1c[nH]c2ccccc12)C(=O)N1CCC[C@H]1C(N)=O)C(C)C)C(C)C
As to B5, the Kd in assay [1] was > 0.4 µM and ≤ 1 µM. The “Wnt Reporter EC50” value in assay [2] is more than 30 µM.

B6: SEQ ID NO: 428 (peptide)
peptide: RWPQKILDEHVRRVWR
HELM: PEPTIDE1{[ac].R.W.P.Q.K.I.L.D.E.H.V.R.R.V.W.R.[am]}$PEPTIDE1,PEPTIDE1,6:R3-10:R3$$$V2.0
SMILES: CC[C@H](C)[C@@H]1NC(=O)[C@@H](NC(=O)[C@H](CCC(N)=O)NC(=O)[C@@H]2CCCN2C(=O)[C@H](Cc2c[nH]c3ccccc23)NC(=O)[C@H](CCCNC(=N)N)NC(C)=O)CCCCNC(=O)CC[C@@H](C(=O)N[C@@H](Cc2c[nH]cn2)C(=O)N[C@H](C(=O)N[C@@H](CCCNC(=N)N)C(=O)N[C@@H](CCCNC(=N)N)C(=O)N[C@H](C(=O)N[C@@H](Cc2c[nH]c3ccccc23)C(=O)N[C@@H](CCCNC(=N)N)C(N)=O)C(C)C)C(C)C)NC(=O)[C@H](CC(=O)O)NC(=O)[C@H](CC(C)C)NC1=O
As for B6, the Kd in assay [1] is not above 0.4 µM. In assay [2], the “Wnt Reporter EC50” value was more than 30 µM.

B7: SEQ ID NO: 38 (peptide)
peptide: H-W[NMeW]E[αMeS]ILDEH[αMeV]QRVWG-NH2
B7 gave a Kd in assay [1] not above 0.4 µM. Moreover, the “Wnt Reporter EC50” value in assay [2] is more than 30 µM.

B8: SEQ ID NO: 438 (peptide)
peptide: W[NMeA]QSILDEHVQKVWG-NH2
modifications: lactam 8-12; not fully specified (N-terminus); printed as H17C8C(O)NH-W-NmeA-QSILDE*HVQK*VWG-NH2
For B8, the dissociation constant Kd in assay [1] was not above 0.4 µM. Moreover, in assay [2], the “Wnt Reporter EC50” value is not above 7.5 µM.

B9: SEQ ID NO: 472 (peptide)
peptide: WPQSILDEHGQKVWG
modifications: not fully specified; Ac-NH-WPQSILDE*H-Chg-QK*VWG-NH2
B9 showed a Kd in assay [1] not above 0.4 µM. For the same molecule, in assay [2], the “Wnt Reporter EC50” value is > 7.5 µM and ≤ 15 µM.

B10: SEQ ID NO: 439 (peptide)
peptide: W[NMeA]QSILDEHVQKVWG-NH2
modifications: lactam 8-12; not fully specified (N-terminus); printed as H23C11C(O)NH-W-NmeA-QSILDE*HVQK*VWG-NH2
In assay [1], B10 had a Kd not above 0.4 µM. The “Wnt Reporter EC50” value in assay [2] is > 7.5 µM and ≤ 15 µM.

B11: SEQ ID NO: 430 (peptide)
peptide: WAQKILDDHGQRVWG
HELM: PEPTIDE1{[ac].W.[meA].Q.K.I.L.D.D.H.[O=C([C@@H](N[*:1])C1CCCCC1)[*:2]].Q.R.V.W.G.[am]}$PEPTIDE1,PEPTIDE1,5:R3-9:R3$$$V2.0
SMILES: CC[C@H](C)[C@@H]1NC(=O)[C@@H](NC(=O)[C@H](CCC(N)=O)NC(=O)[C@H](C)N(C)C(=O)[C@H](Cc2c[nH]c3ccccc23)NC(C)=O)CCCCNC(=O)C[C@@H](C(=O)N[C@@H](Cc2c[nH]cn2)C(=O)N[C@H](C(=O)N[C@@H](CCC(N)=O)C(=O)N[C@@H](CCCNC(=N)N)C(=O)N[C@H](C(=O)N[C@@H](Cc2c[nH]c3ccccc23)C(=O)NCC(N)=O)C(C)C)C2CCCCC2)NC(=O)[C@H](CC(=O)O)NC(=O)[C@H](CC(C)C)NC1=O
Consider B11, for which the Kd in assay [1] is not above 0.4 µM. Besides, the “Wnt Reporter EC50” value in assay [2] was > 15 µM and ≤ 22.5 µM.

B12: SEQ ID NO: 449 (peptide)
peptide: WAQKILDEHGQRVWR
HELM: PEPTIDE1{[ac].W.[meA].Q.K.I.L.D.E.H.[O=C([C@@H](N[*:1])C1CCCCC1)[*:2]].Q.R.V.W.R.[am]}$PEPTIDE1,PEPTIDE1,5:R3-9:R3$$$V2.0
SMILES: CC[C@H](C)[C@@H]1NC(=O)[C@@H](NC(=O)[C@H](CCC(N)=O)NC(=O)[C@H](C)N(C)C(=O)[C@H](Cc2c[nH]c3ccccc23)NC(C)=O)CCCCNC(=O)CC[C@@H](C(=O)N[C@@H](Cc2c[nH]cn2)C(=O)N[C@H](C(=O)N[C@@H](CCC(N)=O)C(=O)N[C@@H](CCCNC(=N)N)C(=O)N[C@H](C(=O)N[C@@H](Cc2c[nH]c3ccccc23)C(=O)N[C@@H](CCCNC(=N)N)C(N)=O)C(C)C)C2CCCCC2)NC(=O)[C@H](CC(=O)O)NC(=O)[C@H](CC(C)C)NC1=O
In assay [1], B12 had a Kd not above 0.4 µM. The “Wnt Reporter EC50” value in assay [2] was more than 30 µM.

B13: SEQ ID NO: 431 (peptide)
peptide: W[NMeA]QKILDDH[Chg]QRVWG-NH2
modifications: lactam 4-8; not fully specified (N-terminus); printed as H17C8C(O)NH-W-NMeA-QK*ILDD*H-Chg-QRVWG-NH2
For the molecule B13, the Kd in assay [1] is not above 0.4 µM. Moreover, the “Wnt Reporter EC50” value in assay [2] was not above 7.5 µM.

B14: SEQ ID NO: 435 (peptide)
peptide: WAQKILNEHGQRVWG
HELM: PEPTIDE1{[ac].W.[meA].Q.K.I.L.N.E.H.[O=C([C@@H](N[*:1])C1CCCCC1)[*:2]].Q.R.V.W.G.[am]}$PEPTIDE1,PEPTIDE1,5:R3-9:R3$$$V2.0
SMILES: CC[C@H](C)[C@@H]1NC(=O)[C@@H](NC(=O)[C@H](CCC(N)=O)NC(=O)[C@H](C)N(C)C(=O)[C@H](Cc2c[nH]c3ccccc23)NC(C)=O)CCCCNC(=O)CC[C@@H](C(=O)N[C@@H](Cc2c[nH]cn2)C(=O)N[C@H](C(=O)N[C@@H](CCC(N)=O)C(=O)N[C@@H](CCCNC(=N)N)C(=O)N[C@H](C(=O)N[C@@H](Cc2c[nH]c3ccccc23)C(=O)NCC(N)=O)C(C)C)C2CCCCC2)NC(=O)[C@H](CC(N)=O)NC(=O)[C@H](CC(C)C)NC1=O
Regarding B14, the Kd in assay [1] is not above 0.4 µM. In addition, the “Wnt Reporter EC50” value in assay [2] was more than 30 µM.

B15: SEQ ID NO: 432 (peptide)
peptide: W[NMeA]QKILDDH[Chg]QRVWG-NH2
modifications: lactam 4-8; not fully specified (N-terminus); printed as H23C11C(O)NH-W-NMeA-QK*ILDD*H-Chg-QRVWG-NH2
In assay [1], B15 showed a Kd not above 0.4 µM. In addition, in assay [2], the “Proliferation IC50, Endo cells” value amounted to 0.8 µM; the “Proliferation IC50, Wnt dependent cells” value stood at 14.9 µM; the “Wnt Reporter EC50” value is > 7.5 µM and ≤ 15 µM.
